The values below come from US8067187 (CROSSBETA BIOSCIENCES B V, dated 2011).

Test [1] concerns the target T1, tissue-type plasminogen activator (tPA, Actilyse, Boehringer-Ingelheim) (human, UniProt P00750 36-562).
T1 construct: Commercial product; also called recombinant human tPA
Description: tPA binding (data not shown).

Test [2] concerns the target T1, tissue-type plasminogen activator (tPA, …). Put plainly: ELISA, immobilized tPA overlaid with a concentration series of β2GPI.
The target of test [3] is T2, human factor XII from plasma (Calbiochem) (human, UniProt P00748 20-615).
T2 construct: also called FXII
T2 sequence (looked up): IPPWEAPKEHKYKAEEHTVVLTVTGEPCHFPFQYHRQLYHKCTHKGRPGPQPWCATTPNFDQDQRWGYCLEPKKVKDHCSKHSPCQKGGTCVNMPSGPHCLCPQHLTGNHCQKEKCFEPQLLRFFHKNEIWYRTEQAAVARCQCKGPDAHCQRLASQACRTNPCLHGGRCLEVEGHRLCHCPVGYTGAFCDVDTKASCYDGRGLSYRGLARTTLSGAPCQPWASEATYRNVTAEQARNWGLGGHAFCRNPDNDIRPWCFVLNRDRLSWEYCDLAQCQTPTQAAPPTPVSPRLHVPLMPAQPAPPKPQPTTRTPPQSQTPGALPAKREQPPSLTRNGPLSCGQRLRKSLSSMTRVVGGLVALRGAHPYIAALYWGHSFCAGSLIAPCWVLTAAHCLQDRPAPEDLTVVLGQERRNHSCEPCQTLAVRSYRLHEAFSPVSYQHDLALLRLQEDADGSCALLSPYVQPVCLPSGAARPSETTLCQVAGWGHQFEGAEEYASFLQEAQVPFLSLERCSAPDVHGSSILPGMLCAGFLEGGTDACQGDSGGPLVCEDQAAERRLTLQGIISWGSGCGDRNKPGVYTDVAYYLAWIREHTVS
Put plainly: ELISA, immobilized factor XII overlaid with a concentration series of β2GPI. A general note: ELISA stands for enzyme-linked immunosorbent assay.

The target in test [4] is T3, anti-β2GPI auto-antibodies purified from plasma of patients with the Anti-phospholipid syndrome.
T3 construct: Polyclonal mixture; also called patient antibodies
Put plainly: competition ELISA: patient anti-β2GPI auto-antibodies with a β2GPI series in solution on immobilized plasma β2GPI. How it is done:
C. […] Eluted fractions are analyzed on Western blot after SDS-PA electrophoresis. […] Anti-β₂GPI auto-antibodies were purified from plasma of patients with the autoimmune disease Anti-phospholipid syndrome.

T1 sequence (P00750 36-562 limits assumed): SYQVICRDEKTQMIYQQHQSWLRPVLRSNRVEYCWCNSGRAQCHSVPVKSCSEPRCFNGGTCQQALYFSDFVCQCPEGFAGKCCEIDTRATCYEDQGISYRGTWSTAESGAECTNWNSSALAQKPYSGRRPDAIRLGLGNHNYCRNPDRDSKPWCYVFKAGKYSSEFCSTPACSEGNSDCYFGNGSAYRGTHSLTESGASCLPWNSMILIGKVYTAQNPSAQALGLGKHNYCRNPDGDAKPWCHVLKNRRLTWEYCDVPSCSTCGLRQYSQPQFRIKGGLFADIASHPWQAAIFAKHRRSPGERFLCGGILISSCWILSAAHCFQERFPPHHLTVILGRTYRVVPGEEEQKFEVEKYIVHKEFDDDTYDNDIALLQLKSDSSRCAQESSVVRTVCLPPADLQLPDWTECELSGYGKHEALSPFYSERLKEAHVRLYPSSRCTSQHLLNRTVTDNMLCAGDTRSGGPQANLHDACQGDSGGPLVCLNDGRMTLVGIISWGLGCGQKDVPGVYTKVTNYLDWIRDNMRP

B1: amyloid fibrin peptide FP13 K157G (peptide)
peptide: KRLEVDIDIGIRS
notes: Preparation with cross-β structure; also called amyloid FP13 K157G
Take B1: the binding result in test [1] is “binds”.

B2: recombinant human β2-glycoprotein I (other, UniProt P02749 20-345, looked up)
chain: GRTCPKPDDLPFSTVVPLKTFYEPGEEITYSCKPGYVSRGGMRKFICPLTGLWPINTLKCTPRVCPFAGILENGAVRYTTFEYPNTISFSCNTGFYLNGADSAKCTEEGKWSPELPVCAPIICPPPSIPTFATLRVYKPSAGNNSLYRDTAVFECLPQHAMFGNDTITCTTHGNWTKLPECREVKCPFPSRPDNGFVNYPAKPTLYYKDKATFGCHDGYSLDGPEEIECTKLGNWSAMPSCKASCKVPVKKATVVYQGERVKIQEKFKNGMLHGDKVSFFCKNKEKKCSYTEDAQCIDGTIEVPKCFKEHSSLAFWKTDASDVKPC
notes: also called recombinant β2GPI; rβ2GPI
In the case of B2, the equilibrium dissociation constant (Kd) in test [2] was found to be 51 nM; in test [3], 20 nM. For the same molecule, the “IC50 (read off the curve)” value in test [4] is about 5 µg/mL.

As usually defined, the Kd is the equilibrium constant for the complex coming apart.
